Read-outs that look alike come from different tables or passages of the source. Values belong to the binder of their own block, whether it stands above or below them.
Legend:
cTnI质控品重组抗原 [1] = target: T1, cTnI质控品重组抗原 (human, UniProt P19429 1-210, limits assumed); test: BLI, antibody captured on AMC sensor, cTnI recombinant protein in solution
T1 construct: 人cTnI蛋白); also called cTnI质控品重组蛋白(公司自产重组抗原); 心肌肌钙蛋白I

cTnI质控品重组抗原 [2] = target: T1, cTnI质控品重组抗原; test: as above; remark: listed apart in the source

T1 sequence (P19429 whole entry): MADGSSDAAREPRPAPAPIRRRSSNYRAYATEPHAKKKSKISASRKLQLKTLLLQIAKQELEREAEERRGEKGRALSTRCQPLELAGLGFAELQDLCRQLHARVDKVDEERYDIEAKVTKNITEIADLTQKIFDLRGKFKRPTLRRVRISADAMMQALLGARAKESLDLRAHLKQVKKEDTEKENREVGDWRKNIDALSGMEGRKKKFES

Kd (cTnI质控品重组抗原 [1]): 80.6 nM | koff (cTnI质控品重组抗原 [1]): 0.000533 s⁻¹ | kon (cTnI质控品重组抗原 [1]): 6610 M⁻¹ s⁻¹
B1: WT 1-5 (antibody, V domains shown)
VH: QVQLQQSGTELAKPGASVKFSCKASDYTFSSYWMYWIKQRPGQGLEWIGYLNPSTGHTEYNQKFKDKATLTADKSSSTAYMQLNSLTSEDSAVYYCARKYWGPFAMDYWGQGTSVTVSS
VL: EIFLTQSPAIMSASPGEKVTMTCSASSSVSYAHWYQQKSGTSPKRWIYDSSKIASGIPVRFSGSGSGTSYSLTISSMEAEDAATYYCQNWSTNPYTFGGGTKLEIKR

Kd (cTnI质控品重组抗原 [2]): 33.5 nM | koff (cTnI质控品重组抗原 [2]): 0.00018 s⁻¹ | kon (cTnI质控品重组抗原 [2]): 5360 M⁻¹ s⁻¹ | Kd (cTnI质控品重组抗原 [1]): 33.5 nM | koff (cTnI质控品重组抗原 [1]): 0.00018 s⁻¹ | kon (cTnI质控品重组抗原 [1]): 5360 M⁻¹ s⁻¹
B2: Anti-cTnI 3C7 重组抗体 (WT) (antibody, V domains shown)
VH: EVKLDETGGGLVQPGRPMKLSCIASGATFSGYWMQWVRQSPEKGLEWVAQLRNGPYDFDTFYSDSVKDRFTISRDDSKSVYLQMNNLRAEDMGIYYCTPHFVHWGQGTLVTVSA
VL: DIVMTQSPSSLSVSEGEKVTLRCKSSNSLFNSGNQQNYLAWYQQKPGQPPKLLIYGPSTREFGVPDRFTGSGSGTDFTLISNVQEDLAVYYCQTDRTSAYTFGGGTKLEIK

Kd (cTnI质控品重组抗原 [1]): 47.8 nM | koff (cTnI质控品重组抗原 [1]): 0.000308 s⁻¹ | kon (cTnI质控品重组抗原 [1]): 6450 M⁻¹ s⁻¹
B3: WT 1-22 (antibody, V domains shown)
VH: EVQLQQSGPELVKPGASVKMSCKASGYSFTLYVLHWVKQKPGQGLEWIGYIYPYIDGTRYNEKFKGKATLTVDKSSSTAFMELSSLTSEDSAVYYCARTGYGNYGLAWLAYWGQGTLVTVSA
VL: QAVVIQESALTTSPGETVTLTCRSSSGAVTTSQYANWVQEKPDHLFTGLIGGSNNRVPGVPARFSGSLIGDKAALTITGAQTEDEAIYFCAIVYSNNWVFGGGTKLTVLG

Source: patent CN111018982A (DONGGUAN PENGZHI BIOTECHNOLOGY CO LTD, dated 2020)
